# Biological target: the molecule itself
# Test: cryo-EM structure
protein,measurement,value
"OmpF, β-barrel channel protein from the outer membrane of E. coli (natural protein, UniProt P02931 23-362, looked up) AEIYNKDGNKVDLYGKAVGLHYFSKGNGENSYGGNGDMTYARLGFKGETQINSDLTGYGQWEYNFQGNNSEGADAQTGNKTRLAFAGLKYADVGSFDYGRNYGVVYDALGYTDMLPEFGGDTAYSDDFFVGRVGGVATYRNSNFFGLVDGLNFAVQYLGKNERDTARRSNGDGVGGSISYEYEGFGIVGAYGAADRTNLQEAQPLGNGKKAEQWATGLKYDANNIYLAANYGETRNATPITNKFTNTSGFANKTQDVLLVAQYQFDFGLRPSIAYTKSKAKDVEGIGDVDLVNYFEVGATYYFNKNMSTYVDYIINQIDSDNKLGVGSDDTVAVGIVYQF",stoichiometry N,3
